Experimental data: paper PMC2962916

Molecular target: T1, HMGD-M13A HMG box (D74-M13A) (Drosophila melanogaster, UniProt Q05783 1-74, M13A)
T1 sequence: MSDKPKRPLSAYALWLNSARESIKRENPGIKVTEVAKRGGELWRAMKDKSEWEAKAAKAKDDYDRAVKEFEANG
Experiment: X-ray crystallography

B1: GCGATATCGC decamer duplex (dsDNA)
DNA 1: GCGATATCGC
DNA 2: GCGATATCGC
  binding result: binds
